Publication PMC3815676 (Journal of immunology (Baltimore, Md. : 1950), 2013)
pEC50: −log10 of the molar value. Where two headings read alike, the source gives them in different places.

What was measured:
[1] = tested on: CD4 T cell clone BDC-5.2.9; format: cell-based, NOD mouse; conditions: 24 h
[2] = target: islet amyloid polypeptide (IAPP), peptide NS18 peptide on I-Ag7 (mouse); assay: IFN-γ ELISA
[3] = target: islet amyloid polypeptide (IAPP), peptide KV17 peptide on I-Ag7 (mouse); assay: IFN-γ ELISA
[4] = target: islet amyloid polypeptide (IAPP), peptide KQ10 peptide on I-Ag7 (mouse); assay: IFN-γ ELISA
[5] = target: islet amyloid polypeptide (IAPP), peptide CS19 peptide on I-Ag7 (mouse); assay: IFN-γ ELISA
[6] = target: islet amyloid polypeptide (IAPP), peptide KS20 peptide on I-Ag7 (mouse); assay: IFN-γ ELISA
[7] = target: islet amyloid polypeptide (IAPP), peptide KG38 peptide on I-Ag7 (mouse); assay: IFN-γ ELISA
[8] = target: islet amyloid polypeptide (IAPP), peptide KN14 peptide on I-Ag7 (mouse); assay: IFN-γ ELISA
[9] = target: islet amyloid polypeptide (IAPP), peptide TS17 peptide on I-Ag7 (mouse); assay: IFN-γ ELISA
[10] = T cell clone BDC-5.2.9 (2 × 10^4) with peritoneal exudate cells (2.5 × 10^4) and peptide, IFN-γ in culture supernatants of duplicate wells by ELISA

`CC(C)C[C@H](NC(=O)[C@H](CC(N)=O)NC(=O)[C@H](CC(N)=O)NC(=O)[C@H](CO)NC(=O)[C@H](CO)NC(=O)[C@H](CCCNC(=N)N)NC(=O)[C@@H](NC(=O)[C@H](CC(C)C)NC(=O)[C@H](Cc1ccccc1)NC(=O)[C@H](CC(N)=O)NC(=O)[C@H](C)NC(=O)[C@H](CC(C)C)NC(=O)[C@H](CCCNC(=N)N)NC(=O)[C@H](CCC(N)=O)NC(=O)[C@@H](NC(=O)[C@H](C)NC(=O)[C@@H]1CSSC[C@H](NC(=O)[C@@H](N)CCCCN)C(=O)N[C@@H](CC(N)=O)C(=O)N[C@@H]([C@@H](C)O)C(=O)N[C@@H](C)C(=O)N[C@@H]([C@@H](C)O)C(=O)N1)[C@@H](C)O)C(C)C)C(=O)NCC(=O)N1CCC[C@H]1C(=O)N[C@H](C(=O)N[C@@H](CC(C)C)C(=O)N1CCC[C@H]1C(=O)N1CCC[C@H]1C(=O)N[C@H](C(=O)N[C@@H](CC(N)=O)C(=O)N[C@H](C(=O)NCC(=O)N[C@@H](CO)C(=O)N[C@@H](CC(N)=O)C(=O)N[C@H](C(=O)N[C@@H](Cc1ccc(O)cc1)C(=O)NCC(=O)O)[C@@H](C)O)C(C)C)[C@@H](C)O)C(C)C` [KG38] showed a pEC50 [1] of 9.70.

For BDC-5.2.9, the EC50 of peptide [2] was > 100 µM, the EC50 of peptide [3] was 10 nM and the EC50 of peptide [4] was > 100 µM. It also gave an EC50 of peptide [5] of 5 nM, an EC50 of peptide [6] of 0.2 nM and an EC50 of peptide [7] of 0.2 nM. For the same compound, the EC50 of peptide [8] was > 100 µM and the EC50 of peptide [9] was > 100 µM.

KCNTATCATQ [KQ10] was tested, and the pEC50 [1, 10] was < 4.00.

In the case of KCNTATCATQRLAN [KN14], the pEC50 [1, 10] was < 4.00.

With NTATCATQRLANFLVRSS [NS18] the pEC50 [1, 10] was < 4.00.

In the case of TATCATQRLANFLVRSS [TS17], the pEC50 [1, 10] was < 4.00.
